{"source": "paper PMC5087487", "about": "“A Graphene Oxide-Based Fluorescent Method for the Detection of Human Chorionic Gonadotropin” (Sensors (Basel, Switzerland), 2016)", "binders": {"B1": {"name": "FITC-labeled hCG-specific binding peptide aptamer FITC-PPLRINRHILTR (peptide)", "peptide": "{FITC}-PPLRINRHILTR", "notes": "In the assay the peptide was first adsorbed onto graphene oxide (GO); also called peptide probe; source: synthetic peptide; bought: Synpeptide Co., Ltd"}}, "target": "T1, Human chorionic gonadotropin (human, UniProt P01215 25-116; P0DN86 21-165)", "T1 construct": "glycoprotein hormones alpha chain of human chorionic gonadotropin; beta subunit of human chorionic gonadotropin; Glycoprotein hormone; also called hCG; source: bought: Sigma-Aldrich", "T1 sequence (P01215 25-116, chain 1 of 2, other chains not shown)": "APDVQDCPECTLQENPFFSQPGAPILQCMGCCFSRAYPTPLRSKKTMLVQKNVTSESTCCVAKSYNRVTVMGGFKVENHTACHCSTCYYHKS", "test": "other fluorescence titration; 50 nM FITC-peptide first adsorbed on graphene oxide (2 ug/mL, 10 min, fluorescence quenched); protein added, 15 min at room temperature, PBS 20 mM pH 7.2; recovery of fluorescence (excitation 470 nm, emission 518 nm) on release of the peptide from GO", "details": "both partners purified", "note": "Ends that are not written are not given here. * marks the point of attachment. FITC = O=C1OC2(c3ccc(O)cc3Oc3cc(O)ccc32)c2ccc(NC(=S)*)cc21"}
{"binder": "B1", "values": [{"measurement": "binding result", "value": "binds"}]}
